The DeepSol protein solubility set

Experiment: soluble on expression in E. coli; label from the status in PepcDB or PDB records

Sequence	soluble on expression in E. coli
FKDFRLGINLNGVYAKNKILFWDEAPGTPEWQKSTGKPIDSGLYYEAIGIFKDQAAVDAYPHWAGARPGDIIFKDVNGDNVIDGNDRVRNDKSRTPRFTGGLNVDLGYKDFDLSFLLQGAMGGVFYQTTESGDFANFLKSFYDNRWTEENPDADFPRTYNRSNEYFINQQNTFWLHKTDYIRLKNIELGYTVPSIWSKKIGVEHLRVYINAYNLLTISPDMKDYDPENTSGSGYNYPLNKVINFGVNLTF	not soluble
FLILLRKTLEQLQEKDTGNIFSEPVPLSEVPDYLDHIKKPMDFFTMKQNLEAYRYLNFDDFEEDFNLIVSNCLKYNAKDTIFYRAAVRLREQGGAVLRQARRQAEKMG	soluble
FLNNKHREKGLKAEEEACGFLKSLGFEMVERNFFSQFGEIDIIALKKGVLHFIEVKSGENFDPIYAITPSKLKKMIKTIRCYLSQKDPN	not soluble
FLSTRDNVDELRKIENKSSFVSADNMPEYVKGAFISMEDERFYNHHGFDLKGTTRALFSTISDRDVQGGSTITQQVVKNYFYDNDRSFTRKVKELFVAHRVEKQYNKNEILSFYLNNIYFGDNQYTLEGAANHYFGTTVNKNSTTMSHITVLQSAILASKVNAPSVYNINN	not soluble
FNCLGMSNRDFLEGVSGATWVDLVLEGDSCVTIMSKDKPTIDVKMMNMEAANLAEVRSYCYLATVSDLSTKAACPTMGEAHNDKRADPAFVCRQGVVDRGWGNGCGLFGKGSIDTCAKFACSTKAIGRTILKENIKYEVAIFVHGPTTVESHGNYSTQVGATQAGRFSITPAAPSYTLKLGEYGEVTVDCEPRSGIDTNAYYVMTVGTKTFLVHREWFMDLNLPWSSAGSTVWRNRETLMEFEEPHATKQSVIALGSQEGALHQALAGAIPVEFSSNTVKLTSGHLKCRVKMEKLQLKGTTYGVCSKAFKFLGTPADTGHGTVVLELQYTGTDGPCKVPISSVASLNDLTPVGRLVTVNPFVSVATANAKVLIELEPPFGDSYIVVGRGEQQINHHWHKSGS	soluble
FPEKVKSLTLIDSFGFICAPEEQMTDQLRRGLLSRMKSANTTRSFTEETAVKARLHVSDLTVEHAKLIVKRSLIEIEPKSMDTVGVDSASILYRWRSDPRLRSVSPYRLSLKQGQQLFSDIKCPLQLIYGDKGMKMVVTGLKNFSSGVNSLQTTKLSGGHHVHMEKAEELLPILHHFFSEI	not soluble
FPSKSKMFEALIERIEQTLTSYINASKRKENSTALAVKAILYTVIEFARKNPGVTRILTGHALMFENSELKLRVAKFFDGLELQFVNILQMRKLREGKAFQDERALAGYLVTFCEGQFLRLVRSNFSSNPHQHFEKQWSLIKPLFE	not soluble
FSRAIDEHFVELDHMAMSAKLAVFRDELRGLGSEQQMRRREAELLRELARHPDLGLRLNGPDGNLWFERLPQPAHPGLPANRELGAPLEPGNDASPRLTVILDISHHQHFLQRMRQL	not soluble
FVVAFLCNWCSYACADLTGMSRIHYPTNIRVIRTMCSARINPEFVLEALKGGADGVLVAGCRMDECHYIHGNFDAKKRMDVLKEIIKEIGLDPKRLRTLWISAAEGERFSNTITEFVKELEEIGPIGSELKREYTATGLEEVAK	not soluble
GAAAAMSICPHIQQVFQNEKSKDGVLKTCNAARYILNHSVPKEKFLNTMKCGTCHEINSGATFMCLQCGFCGCWNHSHFLSHSKQIGHIFGINSNNGLLFCFKCEDYIGNIDLINDAILAKYWDDVCTKTMVPSMERRDGLSGLINMGSTCFMSSILQCLIHNPYFIRHSMSQIHSNNCKVRSPDKCFSCALDKIVHELYGALNTKQASSSSTSTNRQTGFIYLLTCAWKINQNLAGYSQQDAHEFWQFIINQIHQSYVLDLPNAKEVSRANNKQCECIVHTVFEGSLESSIVCPGCQNNSKTTIDPFLDLSLDIKDKKKLYECLDSFHKKEQLKDFNYHCGECNSTQDAIKQLGIHKLPSVLVLQLKRFEHLLNGSNRKLDDFIEFPTYLNMKNYCSTKEKDKHSENGKVPDIIYELIGIVSHKGTVNEGHYIAFCKISGGQWFKFNDSMVSSISQEEVLKEQAYLLFYTIRQVN	soluble
GAADPVVVPANMEPLTIEGNRFVTLCIMIRTTPWEVSRDVKLHPRDEVDWHTLEGVRALREAFATNNPNGRLTWGFTMNALEDGRKNYREIRDYVVECQKKYGDEVTYFPGYFPAMYLPRERVNREMSEAIEIISKMVGNGYRPQSIMGGFLSADNLRYLAEKENIHVAHAVIWSQHNIDGGGADGSPSYPFYPSTEHFCKPAQGKSDFIDCVNLDGWTMDFICARRSGQTGHGIDGYNSRRGVGPIETYKGWGLDLGHREVMHTEAIHFDKGLELNGFGWVANIWEAQMVHEFGKDLICDAMKMWVTGTKERWPDTHFVTFGEFGELWRKQYKSNDDWNYRFVERGSGLGDSYNNLEIKWFMNKEFRLALLRDWHTKNSPAYVIDFTRYDLQAHEPADPSPEKPAKDWSLINKINQKALRPQDKPVLIDKLEKEDQDLIRKYYPELLK	soluble
GAASEAEYGKVSKAWTLHADGSQEYRSSMELTLFTHTAMNSTYGESFIVYNPDFQTLKIHSSYTRQKDGTIVKTPDNAFVEVLPRFAADAPAYNQLKEMVVVHTGLELGATIYLDYSIITKPGYYPALDINERLQETSPVKECKVSISVPEGTPLACGLYGSPVKAVEESHDGIKEVHWTLRNIPASSREAFQPKNREASPHLVASTYPSGKAALATLDKRLKESQGYESKTFAQFLTDKSGNEQEKVNIIRDHILNNLSTCPIPMAMTGYTVRDIDTVLRSAYGTPLEIAQLLNVMLNAAGIPSEVLAVYPGHLDTDACGLAAIQTLAVKATVDGKDQYLSASPLTNRGGLDKVVSLSGTSIEIETTPIQIKESRSVAISADQAKDGFAICVLPAISAGIDSWGMSALNSKRSNLFELPSLIREEVTYTVTPAEGMKLQTSTQEQVISKPFGKVTRTITPRGNTIEVVRTIELNKQQFTPAEYSDVRSLIHEWTNPDNRVLLFSL	soluble
GAGTSTPTTGNQNMSGNSGSIVQNFYMQQYQNSIDADLGDNVISPEGQGSNTSSSTSSSQSSGLGGWFSSLLNLGTKLLADKKTEETTNIEDRIETTVVGVTIINSQGSVGTTYCYSKPDGRPPSTVSDPVTRLGPTLSRHYTFKVGEWPHSQSHGHAWICPLPGDKLKKMGSFHEVVKAHHLVKNGWDVVVQVNASFAHSGALCVAAVPEYEHTHEKALKWSELEEPAYTYQQLSVFPHQLLNLRTNSSVHLVMPYIGPGPTTNSALHNPWTIVVLILSELTGPGQTVPVTMSVAPIDAMVNGPLPNPEAPIRVVSVPESDSFMSSVPDNSTPLYPKVVVPPRQVPGRFTNFIDVAKQTYSFCSISGKPYFEVTNTSGDEPLFQMDVSLSAAELHGTYVASLSSFFAQYRGSLNFNFIFTGAAATKAKFLVAFVPPHSAAPKTRDEAMACIHAVWDVGLNSAFSFNVPYSSPADFMAVYSAEATVVNVSGWLQVYALTALTSTDIAVNSKGRVLVAVSAGPDFSLRHPVDLPDKQVTNVGEDGEPGETEPRYALSPVDMHVHTDVSFLLDRFFDVETLELSNLTGSPNTHVLNPFGSTAQLAWARLLNTCTYFFSDLELSIQFKFTTTPSSVGEGFVWVKWFPVGAPTKTTDAWQLEGGGNSVRIQQLAVAGMSPTVVFKIAGSRSQACGFSVPYTSMWRVVPVFYNGWGAPTKEKATYNWLPGAHFGSILLTSDAHDKGGCYLRYRFPRASMYCPRPIAPAFTRPADKTRHKFPTNINKQCTNYSLLKLAGDVESNPG	soluble
GAKDSTVQTSISVENVLERAGDSTPFSVALESIDAMKTIEEITIAGSGKASFSPLTFTTVGQYTYRVYQKPSQNKDYQADTTVFDVLVYVTYDEDGTLVAKVISRRAGDEEKSAITFKPKRLVKPIPPRQPDFPKTPLPLA	soluble
GAMAPATVNVEVLQDKLDHPWALAFLPDNHGMLITLRGGELRHWQAGKGLSAPLSGVPDVWAHGQGGLLDVVLAPDFAQSRRIWLSYSEVGDDGKAGTAVGYGRLSDDLSKVTDFRTVFRQMPKLSTGNHFGGRLVFDGKGYLFIALGENNQRPTAQDLDKLQGKLVRLTDQGEIPDDNPFIKESGVRAEIWSYGIRNPQGMAMNPWSNALWLNEHGPRGGDEINIPQKGKNYGWPLATWGINYSGFKIPEAKGEIVAGTEQPVFYWKDSPAVSGMAFYNSDKFPQWQQKLFIGALKDKDVIVMSVNGDKVTEDGRILTDRGQRIRDVRTGPDGYLYVLTDESSGELLKVSPR	soluble
GAMDMLGTSFNNFGISLSHKRYFSGKVDEIIRCTMGKRIVKISSTKINTSILSSVSEQIGENITDWKNDEKKVYVSRVVNQCIDKFCAEHSRKIGDNLRKQIFKQVEKDYRISLDINAAQSSINHLVSGSSYFKKKMDELCEGMNRSVKNDTTSNVANLISDQFFEKNVQYIDLKKLRGNMSDYITNLESPF	soluble
GAMDPDLEATLRAIVHSATSLVDARYGAMEVHDRQHRVLHFVYEGIDEETVRRIGHLPKGLGVIGLLIEDPKPLRLDDVSAHPASIGFPPYHPPMRTFLGVPVRVRDESFGTLYLTDKTNGQPFSDDDEVLVQALAAAAGIAVANARLYQQAK	soluble
GAMGDDSMRMSHLKVGSAADIPINISETDLSLLTATVVPPSGREEPCLLKRLRNGHVGISFVPKETGEHLVHVKKNGQHVASSPIPVVISQSEIGDASRVRVSGQGLHEGHTFEPAEFIIDTRDAGYGGLSLSIEGPSKVDINTEDLEDGTCRVTYCPTEPGNYIINIKFADQHVPGSPFSVKVTGEGRVK	soluble
GAMGIVGVGIDLVSIPDFAEQVDQPGTVFAETFTPGERRDASDKSSSAARHLAARWAAKEAVIKAWSGSRFAQRPVLPEDIHRDIEVVTDMWGRPRVRLTGAIAEYLADVTIHVSLTHEGDTAAAVAILEAP	soluble
GAMGPVDEQWIEILRIQALCARYCLTINTQDGEGWAGCFTEDGAFEFDGWVIRGRPALREYADAHARVVRGRHLTTDLLYEVDGDVATGRSASVVTLATAAGYKILGSGEYQDRLIKQDGQWRIAYRRLRNDRLVSDPSVAVNVADADVAAVVGHLLAAARRLGTQMSDT	soluble
GAMGSMKPYLFDLKLKDTEKLDWKKGLSSYLKKSYGSSQWRTFYDEKATSELDHLRNNANGELAPSSLSEQNLKYYSFLEHLYFRLGSKGSRLKMDFTWYDAEYSSAQKGLKYTQHTLAFEKSCTLFNIAVIFTQIARENINEDYKNSIANLTKAFSCFEYLSENFLNSPSVDLQSENTRFLANICHAEAQELFVLKLLNDQISSKQYTLISKLSRATCNLFQKCHDFMKEIDDDVAIYGEPKWKTTVTCKLHFYKSLSAYYHGLHLEEENRVGEAIAFLDFSMQQLISSLPFKTWLVEFIDFDGFKETLEKKQKELIKDNDFIYHESVPAVVQVDSIKALDAIKSPTWEKILEPYMQDVANKYDSLYRGIIPLDVYEKESIYSEEKATLLR	soluble
GASCSGGDKSKAPVVSTADIENAAEVIKYYNTSLGVLKDMVKEKDVNAVLDYMEQKGKTPALSAIVPPAVVSKDSAIVLNPGNCFNEETRRNLKQNYTGLFQARTEFYANFDTYLSYLKKKDVTNAKKLLDVNYQLSTQMSEYKQNIFDILSPFTEQAELVLLVDNPLKAQIMSVRKMSSTMQSILNLYARKHRMDGPRIDLKVAELTKQLDAAKKLPVVNGHEGEMKSYQAFLSQVETFIKQVKKVREKGEYSDADYDMLTSAFETSII	soluble
GASTRDYEIQRERIELGRCIGEGQFGDVHQGIYMSPENPALAVAIKTCKNCTSDSVREKFLQEALTMRQFDHPHIVKLIGVITENPVWIIMELCTLGELRSFLQVRKYSLDLASLILYAYQLSTALAYLESKRFVHRDIAARNVLVSSNDCVKLGDFGLSRYMEDSTYYKASKGKLPIKWMAPESINFRRFTSASDVWMFGVCMWEILMHGVKPFQGVKNNDVIGRIENGERLPMPPNCPPTLYSLMTKCWAYDPSRRPRFTELKAQLSTILEEEKAQQEE	soluble
